These results are taken from publication PMC2562756.

Series [1] deals with T1, DNA topoisomerase 1 (TOP1) (human, UniProt P11387 1-765). Put plainly: competition.
Series [2] concerns the target T1, DNA topoisomerase 1 (TOP1). The series can be described thus: EMSA. For orientation: In EMSA bound probe runs differently from free probe, usually more slowly.
Series [3] concerns the target T1, DNA topoisomerase 1 (TOP1). The series can be described thus: competition. This is another data set of the same source.

T1 sequence (P11387 whole entry): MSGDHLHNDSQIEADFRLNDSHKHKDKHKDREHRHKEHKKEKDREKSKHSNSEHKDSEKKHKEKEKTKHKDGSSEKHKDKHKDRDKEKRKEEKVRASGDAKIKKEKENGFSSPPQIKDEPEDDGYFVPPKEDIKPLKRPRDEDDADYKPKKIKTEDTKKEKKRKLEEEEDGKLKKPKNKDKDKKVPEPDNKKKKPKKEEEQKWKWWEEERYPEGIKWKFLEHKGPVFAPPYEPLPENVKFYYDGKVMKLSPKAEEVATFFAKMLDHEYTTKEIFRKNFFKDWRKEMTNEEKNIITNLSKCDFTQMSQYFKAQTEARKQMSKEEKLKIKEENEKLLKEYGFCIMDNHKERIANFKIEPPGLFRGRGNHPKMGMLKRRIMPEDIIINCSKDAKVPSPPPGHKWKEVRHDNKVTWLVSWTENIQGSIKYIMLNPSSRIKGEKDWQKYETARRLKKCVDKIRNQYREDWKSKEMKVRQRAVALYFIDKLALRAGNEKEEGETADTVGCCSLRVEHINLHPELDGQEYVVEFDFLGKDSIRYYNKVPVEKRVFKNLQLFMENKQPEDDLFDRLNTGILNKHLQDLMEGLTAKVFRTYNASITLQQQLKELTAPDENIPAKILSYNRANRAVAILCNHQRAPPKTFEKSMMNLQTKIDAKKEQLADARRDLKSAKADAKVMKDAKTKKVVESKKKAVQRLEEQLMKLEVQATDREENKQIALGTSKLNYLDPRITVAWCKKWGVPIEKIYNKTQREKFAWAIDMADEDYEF

B1: 22-bp TOP1 binding sequence competitor (TOP1-BS) (dsDNA)
DNA 1: AAAAAGACTTGGAAAAATTTTT
DNA 2: AAAAATTTTTCCAAGTCTTTTT
With B1, in series [1], the binding result is recorded as “binds”.

B2: 52-bp TOP1 substrate (dsDNA)
DNA 1: TCTAGAGGATTTCGAAGACTTAGAGAAATTTCGAAGATCCCCGGGCGAGCTC
DNA 2: GAGCTCGCCCGGGGATCTTCGAAATTTCTCTAAGTCTTCGAAATCCTCTAGA
For the molecule B2, in series [2], the binding result was “binds”.

B3: 42-bp NF-kappaB binding sequence competitor (NF-kappaB-BS) (dsDNA)
DNA 1: GATCCAAGGGGACTTTCCATGGATCCAAGGGGACTTTCCATG
DNA 2: CATGGAAAGTCCCCTTGGATCCATGGAAAGTCCCCTTGGATC
In the case of B3, the binding result in series [3] is on record as “no binding”.
